# Experimental data taken from the supplement of paper PMC7125110.
# ± gives the standard error. Variants at the floor of the assay were thinned out.
# B1: glmS ribozyme (parent)
# chain: AUAAAAGCGCCAGAACUACAGAAAUGUAGUUGACGAGGAGGAGGUUUAUCGAAUUUUCGGCGGAUGCCUCCAAA
# Variants of: B1
# Assay: self-cleavage kobs at 10000 uM GlcN6P; higher = faster cleavage; RNA array
# Settings: with glucosamine-6-phosphate
# Summary of the method: (§1)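 E. coli RNA polymerase transcribed barcoded ribozyme variants in situ on sequenced MiSeq chips, which were tracked via a hybridised Cy3 probe at 37 °C. Tiles were imaged over ~14 h after glucosamine-6-phosphate (40 μM to 10 mM) in HEPES/KCl/Mg(OAc)2 buffer was flowed in. Normalised per-tile medians were fit to one- or two-exponential decays for kobs, and kcat and KM came from weighted Michaelis–Menten fits.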
row,Variant,self-cleavage kobs at 10000 uM GlcN6P [s⁻¹]
1,C8U G13U A15U C16U G32C A48U,< 1e-05
2,A12C A15U C58G,0.00016 ± 3.5e-05
3,A12U G44C A53G,0.000245 ± 4.7e-05
4,G7A A64G C67U C70G,< 1e-05
5,A14G C16U A39U,0.0817 ± 0.036
6,C10U A33G C68U,< 1e-05
7,C11A C16A G66C C70G,6.24e-05 ± 2.5e-05
8,A12C G32A G35A G51C,< 1e-05
9,G9A A33U G51A A52U U55A,< 1e-05
10,G9U U31G U45A C61A C68A,< 1e-05
11,G13U C34U G37U A53U,< 1e-05
12,C11G G32U G41U G43U A52C C67A U69A,< 1e-05
13,A15U U30G G60C,< 1e-05
14,A6U G9A G43C A53C C70G,< 1e-05
15,A15U A39U U55A,0.00299 ± 0.00069
16,A15G A52G G66A C68U,0.000149 ± 2.8e-05
17,A14U C34G C71U,< 1e-05
18,A15G G41C U47G C61U U65A,< 1e-05
19,C8G A42U U55G,< 1e-05
20,C16A U45G A64G,0.000258 ± 5.1e-05
21,G7A G9C G40U,< 1e-05
22,A14U U49C C70A,< 1e-05
23,C16G U46C C70U,0.000325 ± 7.4e-05
24,A6C G37A C68A,< 1e-05
25,A12U A15U U57G,3.38e-05 ± 1.4e-05
26,A6C G44A C58U,< 1e-05

row,Variant,self-cleavage kobs at 10000 uM GlcN6P [s⁻¹]
1,G7A A12C G51U,< 1e-05
2,A12C G51A G59U G66U,< 1e-05
3,G9U A15U G37U,< 1e-05
4,A5U A33C,0.000263 ± 6.3e-05
5,C8U C34G C58G G60U C67U,< 1e-05
6,A6C U56A C68G,< 1e-05
7,C16G G32U C58U,0.000423 ± 0.00013
8,C16A U31G C68U,4.49e-05 ± 1.5e-05
9,G9C U31A,< 1e-05
10,A15C U30C A39G,0.000286 ± 6.4e-05
11,A15G A39G U55A C58U,2.43e-05 ± 1.1e-05
12,G9U U30A U56G,< 1e-05
13,A15U C50A C67U,< 1e-05
14,A6C C8U G9C C67U,< 1e-05
15,C10G U30A G37C A39U G62A,< 1e-05
16,A6C C34A G37U,< 1e-05
17,A15G U30G G40U,0.000863 ± 0.00017
18,A6G A14U A36G C50A,< 1e-05
19,C16A G29A C50A G59A C71U,< 1e-05
20,G9A C10G U69G,0.000596 ± 0.00021
21,A12C G41A C67A,7.76e-05 ± 2.9e-05
22,C10G G29A U65C,< 1e-05
23,G9U C34U A36C G62C,< 1e-05
24,C10G C61A G66U,< 1e-05
25,C10A A15C C16U G40A G44A C61G,< 1e-05
26,C10A C11U G38C U55C C61A A64U,< 1e-05

row,Variant,self-cleavage kobs at 10000 uM GlcN6P [s⁻¹]
1,A12G U54C,0.001 ± 0.00011
2,A12G G43U G60C,< 1e-05
3,C10U A15G G35A,< 1e-05
4,A15U G44U A64U,< 1e-05
5,A15U C16U G29U C67A,0.00151 ± 0.00034
6,C11G G38U G41A C68G,< 1e-05
7,C11U G29U C70A,8.25e-05 ± 2.8e-05
8,G13A G44C C67A,9.29e-05 ± 1.9e-05
9,A12U U30C G32A A52U U65G C70G,< 1e-05
10,A12U A15C C16U,0.0012 ± 0.00023
11,A15G G35A U57G G62A,< 1e-05
12,C8U C58G U69G,0.000536 ± 0.00016
13,A14G G40C G41U,0.000186 ± 4e-05
14,C11U A12G C50U,< 1e-05
15,A14C C58U,8.12e-05 ± 1.2e-05
16,A15U G29C C58A,6.87e-05 ± 2.7e-05
17,A12U A14U G29A,0.00021 ± 4.5e-05
18,C10U C34A G41U,< 1e-05
19,C8A C11G A48U C67G C71A,< 1e-05
20,C11U A12U U46G C70U,0.000953 ± 0.00017
21,C8A G40C G59A G63A,< 1e-05
22,G13U G37A C50U U69A,< 1e-05
23,G9A A12G A36C G38C,< 1e-05
24,A14U U30C G38C,< 1e-05
25,C8G A14C G38A U56A G59U,< 1e-05
26,C10G C34G A36G G44A U45G U57C C61A C70A,< 1e-05

# Variants of: B1
# Assay: self-cleavage kobs at 2500 uM GlcN6P; higher = faster cleavage; RNA array
# Settings: with glucosamine-6-phosphate
# Summary of the method: as §1
row,Variant,self-cleavage kobs at 2500 uM GlcN6P [s⁻¹]
1,G59A U69C C70U,< 1e-05
2,U56G G60A U65G,< 1e-05
3,G59C C61U C67A,4.78e-05 ± 1.7e-05
4,G59U U65A C68U,< 1e-05
5,C58G C67A C70U C71U,7.14e-05 ± 2.7e-05
